Values quoted from earlier work in article PMC1976947.

Biological target: G-CSF receptor (Mus musculus) (UniProt P40223)
UniProt P40223, sequence (P40223 26-837): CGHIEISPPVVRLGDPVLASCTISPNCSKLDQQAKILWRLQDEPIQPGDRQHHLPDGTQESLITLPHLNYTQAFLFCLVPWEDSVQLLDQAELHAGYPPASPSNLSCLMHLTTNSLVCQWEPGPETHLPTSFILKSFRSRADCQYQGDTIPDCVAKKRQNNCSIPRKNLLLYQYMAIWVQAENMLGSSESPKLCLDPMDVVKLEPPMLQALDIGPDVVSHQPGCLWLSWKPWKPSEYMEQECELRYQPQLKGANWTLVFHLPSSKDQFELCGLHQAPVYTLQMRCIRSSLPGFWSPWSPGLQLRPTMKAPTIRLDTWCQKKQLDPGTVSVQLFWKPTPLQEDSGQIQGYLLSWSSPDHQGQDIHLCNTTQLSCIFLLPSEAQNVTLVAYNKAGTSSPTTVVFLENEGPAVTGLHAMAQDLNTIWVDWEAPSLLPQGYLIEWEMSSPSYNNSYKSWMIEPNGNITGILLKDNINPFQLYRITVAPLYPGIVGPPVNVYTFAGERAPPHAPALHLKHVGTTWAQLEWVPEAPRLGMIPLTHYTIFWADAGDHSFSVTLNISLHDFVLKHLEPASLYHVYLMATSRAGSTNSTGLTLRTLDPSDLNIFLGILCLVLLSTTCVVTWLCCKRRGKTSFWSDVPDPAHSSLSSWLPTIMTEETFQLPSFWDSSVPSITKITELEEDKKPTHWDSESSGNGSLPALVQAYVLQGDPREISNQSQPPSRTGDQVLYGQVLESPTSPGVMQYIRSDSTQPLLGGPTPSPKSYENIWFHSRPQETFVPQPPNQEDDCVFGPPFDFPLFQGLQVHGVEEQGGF

G-CSF, sequence (P09919 31-207): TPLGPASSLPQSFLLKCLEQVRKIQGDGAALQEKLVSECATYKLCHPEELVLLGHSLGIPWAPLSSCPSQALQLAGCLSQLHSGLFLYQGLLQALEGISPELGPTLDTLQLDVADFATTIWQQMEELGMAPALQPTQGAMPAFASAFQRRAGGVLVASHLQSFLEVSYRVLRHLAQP

Kd: 0.07 nM
Substance: G-CSF (from UniProt P09919)
